This note sets out measurements from US20160282364.

In this data set the test system is insulin.

As for “recombinant human IDE42-1019 (R&D Systems)”, the “degradation of insulin by IDE (HTRF insulin assay, 0.4 µg/mL IDE, 10 ng/mL insulin, 30° C., 15 min)” value is given as “˜75% degradation of insulin”.
